# Assay results from publication doi:10.1101/2024.03.25.586599 (bioRxiv, 2024).
# Ends that are not written are not given here. * marks the point of attachment. Biotin = O=C1N[C@H]2[C@H](CS[C@H]2CCCCC(=O)*)N1
# Assays:
# Assay in all cases: SPR
# [1] = target: T1, N-terminally biotinylated synthetic FLAG peptide, 4-residue variant (DYKD) (synthetic construct)
# T1 chain: Biotin-DYKD
# [2] = target: T2, N-terminally biotinylated synthetic FLAG peptide, wildtype (DYKDDDDK) (synthetic construct, not fully specified (N-terminus))
# T2 chain: DYKDDDDK
# [3] = target: T3, N-terminally biotinylated synthetic FLAG peptide, Asp5Glu (DYKDEDDK) (synthetic construct, point mutant, not fully specified (N-terminus))
# T3 chain: DYKDEDDK
# [4] = target: T4, N-terminally biotinylated synthetic FLAG peptide, six-residue truncated version (DYKDDD) (synthetic construct)
# T4 chain: Biotin-DYKDDD
# [5] = target: T5, N-terminally biotinylated synthetic FLAG peptide, 5-residue variant (DYKDD) (synthetic construct)
# T5 chain: Biotin-DYKDD
# [6] = target: T6, N-terminally biotinylated synthetic FLAG peptide, truncated, Asp5Glu (DYKDED) (synthetic construct, point mutant)
# T6 chain: Biotin-DYKDED
# [7] = target: T2, N-terminally biotinylated synthetic …
# [8] = target: T3, N-terminally biotinylated synthetic …
# [9] = target: T7, N-terminally biotinylated synthetic FLAG peptide truncated by one C-terminal residue (DYKDDDD) (synthetic construct)
# T7 chain: Biotin-DYKDDDD
# [10] = target: T1, N-terminally biotinylated synthetic …
# [11] = target: T7, N-terminally biotinylated synthetic …
# [12] = target: T4, N-terminally biotinylated synthetic …
# [13] = target: T5, N-terminally biotinylated synthetic …
# [14] = target: T6, N-terminally biotinylated synthetic …
binder,measurement,setting,value
"anti-FLAG M2 IgG (wildtype, recombinant) (antibody, V domains shown) VH: QVQLQQSAAELARPGASVKMSCKASGYSFTTYTIHWVKQRPGQGLEWIGYINPSSGYAAYNQNFKDETTLTADPSSSTAYMELNSLTSEDSAVYYCAREKFYGYDYWGQGATLTVSS VL: DVLMTQIPLSLPVSLGDQASISCRSSQSIVHRNGNTYLEWYLLKPGQSPKLLIYKVSNRFSGVPDRFSGSGSGTDFTLKISRVEAEDLGVYYCFQGSHVPYTFGGGTKLEIR","KD, first site (two-site binding model)",[1],52.9 ± 22.1 nM
same,"KD, first site (two-site binding model)",[2],2.95 ± 0.31 nM
same,"KD, first site (two-site binding model)",[3],2.23 ± 0.25 nM
same,"KD, first site (two-site binding model)",[4],9.72 ± 2.6 nM
same,"KD, first site (two-site binding model)",[5],154 ± 100 nM
same,"KD, first site (two-site binding model)",[6],10.2 ± 0.48 nM
"anti-FLAG M2 Fab (wildtype, recombinant) (Fab, V domains shown) VH: QVQLQQSAAELARPGASVKMSCKASGYSFTTYTIHWVKQRPGQGLEWIGYINPSSGYAAYNQNFKDETTLTADPSSSTAYMELNSLTSEDSAVYYCAREKFYGYDYWGQGATLTVSS VL: DVLMTQIPLSLPVSLGDQASISCRSSQSIVHRNGNTYLEWYLLKPGQSPKLLIYKVSNRFSGVPDRFSGSGSGTDFTLKISRVEAEDLGVYYCFQGSHVPYTFGGGTKLEIR",Kd,[7],1910 ± 240 nM
same,Kd,[8],1780 ± 130 nM
"anti-FLAG M2 IgG, heavy chain K100R (antibody, V domains shown) VH: QVQLQQSAAELARPGASVKMSCKASGYSFTTYTIHWVKQRPGQGLEWIGYINPSSGYAAYNQNFKDETTLTADPSSSTAYMELNSLTSEDSAVYYCARERFYGYDYWGQGATLTVSS VL: DVLMTQIPLSLPVSLGDQASISCRSSQSIVHRNGNTYLEWYLLKPGQSPKLLIYKVSNRFSGVPDRFSGSGSGTDFTLKISRVEAEDLGVYYCFQGSHVPYTFGGGTKLEIR",fold drop in affinity against the wildtype IgG,[1],~20 fold
same,fold drop in affinity against the wildtype IgG,[9],~20 fold
same,fold drop in affinity against the wildtype IgG,[2],~20 fold
same,fold drop in affinity against the wildtype IgG,[3],~20 fold
same,fold drop in affinity against the wildtype IgG,[4],~20 fold
same,fold drop in affinity against the wildtype IgG,[5],~20 fold
same,fold drop in affinity against the wildtype IgG,[6],~20 fold
"anti-FLAG M2 Fab, heavy chain K100R (Fab, V domains shown) VH: QVQLQQSAAELARPGASVKMSCKASGYSFTTYTIHWVKQRPGQGLEWIGYINPSSGYAAYNQNFKDETTLTADPSSSTAYMELNSLTSEDSAVYYCARERFYGYDYWGQGATLTVSS VL: DVLMTQIPLSLPVSLGDQASISCRSSQSIVHRNGNTYLEWYLLKPGQSPKLLIYKVSNRFSGVPDRFSGSGSGTDFTLKISRVEAEDLGVYYCFQGSHVPYTFGGGTKLEIR",fold drop in affinity against the wildtype Fab,[10],~20 fold
same,fold drop in affinity against the wildtype Fab,[11],~20 fold
same,fold drop in affinity against the wildtype Fab,[7],~20 fold
same,fold drop in affinity against the wildtype Fab,[8],~20 fold
same,fold drop in affinity against the wildtype Fab,[12],~20 fold
same,fold drop in affinity against the wildtype Fab,[13],~20 fold
same,fold drop in affinity against the wildtype Fab,[14],~20 fold
